The subject of the data set is bladder tumor tissue (epidermal growth factor positive superficial transitional cell bladder carcinoma). Nature of the data set: Radioactive uptake in bladder tumor vs normal bladder tissue after instillation in the bladder of patients (ttn ratio). As to conditions: 200 mL of 0.25 μg/mL in saline instilled in the bladder for 30 minutes, washed out, mean values. The method, then:
Nine patients having epidermal growth factor positive superficial transitional cell bladder carcinoma were studied.
200 mL of the polymers, of the concentration 0.25 μg/mL in saline, were instilled through an urethral catether and kept in the bladder for 30 minutes and were then carefully washed out with approximately 400 mL saline. The patients were then operated on and samples were taken from normal bladder tissue and bladder tumor tissue, respectively. The samples were weighed and counted in gamma counter and the radioactive uptake was calculated as cpm/g tissue. The target to non-target (ttn) ratio was calculated.

The record followed here is patent US6569841B1, “Ion exchange tumor targeting (IETT)” (MAP Medical Technologies OY, priority 1998, dated 2003).

On to Tc-99m-lysine dextran, for which the “radioactive uptake, ttn (target to non-target ratio, tumor vs normal bladder tissue, cpm/g)” value is “highest target to non-target ratio”.
